Measurements reported in patent EP4545091A1 (priority 2023, dated 2025).

Molecular target: TMPRSS2 on cells (UniProt O15393)
Assay: cell-based or functional assay

With Trypstatin (AMBP 284-344) (peptide) the IC50, MERS-CoV spike pseudoparticle entry into CaCo-2 cells (luciferase) was 0.078 µM and the IC50, SARS-CoV spike pseudoparticle entry into CaCo-2 cells (luciferase) was 0.031 µM.
